Experimental data reported in patent publication US20140087995A1 (published 2014).
One block for each binder: values may come before it. Numbered stars: 1 amine (or outer) side, 2 acyl side, 3 side chain; on linkers, the order of the positions; unused ones are H or OH. Bridge positions count the residues as written; N and C are the ends. Side chains are listed from the residue outwards. Ends that are not written are not given here. * marks the point of attachment. C20 diacid = O=C(O)CCCCCCCCCCCCCCCCCCC(=O)*; γGlu = O=C(O)[C@H](CCC(=O)[*:2])N[*:1]; AEEA = NCCOCCOCC(=O)O

Target: T1, human amylin receptor (amylin 3(a) receptor: human calcitonin receptor with RAMP-3) (human, UniProt P30988 25-474; O60896 24-148)
T1 construct: whole, on cells; also called hAmylin-R; hAmylinR
T1 sequence (looked up) 1: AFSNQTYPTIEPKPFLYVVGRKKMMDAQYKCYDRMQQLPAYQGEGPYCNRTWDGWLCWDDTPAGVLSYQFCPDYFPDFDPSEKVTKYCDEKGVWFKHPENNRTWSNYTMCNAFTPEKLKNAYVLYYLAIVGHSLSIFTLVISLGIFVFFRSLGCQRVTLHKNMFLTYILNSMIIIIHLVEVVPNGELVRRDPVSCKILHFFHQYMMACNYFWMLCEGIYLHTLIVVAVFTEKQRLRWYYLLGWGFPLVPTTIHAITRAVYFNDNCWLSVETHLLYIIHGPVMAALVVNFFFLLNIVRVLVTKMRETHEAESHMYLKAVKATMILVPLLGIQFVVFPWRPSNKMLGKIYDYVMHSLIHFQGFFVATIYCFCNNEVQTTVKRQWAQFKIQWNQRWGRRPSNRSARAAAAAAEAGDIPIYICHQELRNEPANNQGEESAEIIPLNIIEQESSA
T1 sequence (looked up) 2: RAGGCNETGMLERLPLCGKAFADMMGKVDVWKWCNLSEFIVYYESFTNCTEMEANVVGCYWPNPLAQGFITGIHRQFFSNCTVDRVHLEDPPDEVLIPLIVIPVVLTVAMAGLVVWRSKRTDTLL
Experiment: SPA displacement of 125I-rat amylin, hAmylin 3(a) receptor membranes
Procedure, shortened: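 SPA beads with BHK Amylin 3(a)/CRE-luc cell membranes (35 ng/μL final) in 50 mM Hepes pH 7.4, 1 mM CaCl2, 5 mM MgCl₂, 0.1% OA, 0.02% Tween20.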

IC50: 0.172 nM
B1: N^ε1-[2-[2-[2-[[(4S)-4-carboxy-4-(19-carboxynonadecanoylamino)butanoyl]amino]ethoxy]ethoxy]acetyl]-[Ala14,Arg17,Pro21,Pro27,Pro31]-h-amylin (peptide)
peptide: K([AEEA-γGlu-C20 diacid])CNTATCATQRLAAFLRHSSPNFGAIPSSTPVGSNTY-NH2
modifications: disulfide 2-7; N-terminus assumed
SMILES: CC[C@H](C)[C@H](NC(=O)[C@H](C)NC(=O)CNC(=O)[C@H](Cc1ccccc1)NC(=O)[C@H](CC(N)=O)NC(=O)[C@@H]1CCCN1C(=O)[C@H](CO)NC(=O)[C@H](CO)NC(=O)[C@H](Cc1c[nH]cn1)NC(=O)[C@H](CCCNC(=N)N)NC(=O)[C@H](CC(C)C)NC(=O)[C@H](Cc1ccccc1)NC(=O)[C@H](C)NC(=O)[C@H](C)NC(=O)[C@H](CC(C)C)NC(=O)[C@H](CCCNC(=N)N)NC(=O)[C@H](CCC(N)=O)NC(=O)[C@@H](NC(=O)[C@H](C)NC(=O)[C@@H]1CSSC[C@H](NC(=O)[C@@H](N)CCCCNC(=O)COCCOCCNC(=O)CC[C@H](NC(=O)CCCCCCCCCCCCCCCCCCC(=O)O)C(=O)O)C(=O)N[C@@H](CC(N)=O)C(=O)N[C@@H]([C@@H](C)O)C(=O)N[C@@H](C)C(=O)N[C@@H]([C@@H](C)O)C(=O)N1)[C@@H](C)O)C(=O)N1CCC[C@H]1C(=O)N[C@@H](CO)C(=O)N[C@@H](CO)C(=O)N[C@H](C(=O)N1CCC[C@H]1C(=O)N[C@H](C(=O)NCC(=O)N[C@@H](CO)C(=O)N[C@@H](CC(N)=O)C(=O)N[C@H](C(=O)N[C@@H](Cc1ccc(O)cc1)C(N)=O)[C@@H](C)O)C(C)C)[C@@H](C)O
notes: also called 72; compound 72

IC50: 0.444 nM
B2: N^ε1-[2-[2-[2-[[(4S)-4-carboxy-4-(19-carboxynonadecanoylamino)butanoyl]amino]ethoxy]ethoxy]acetyl]-[Arg14,Arg17,Pro21,Pro27,Pro31]-h-amylin (peptide)
peptide: K([AEEA-γGlu-C20 diacid])CNTATCATQRLARFLRHSSPNFGAIPSSTPVGSNTY-NH2
modifications: disulfide 2-7; N-terminus assumed
SMILES: CC[C@H](C)[C@H](NC(=O)[C@H](C)NC(=O)CNC(=O)[C@H](Cc1ccccc1)NC(=O)[C@H](CC(N)=O)NC(=O)[C@@H]1CCCN1C(=O)[C@H](CO)NC(=O)[C@H](CO)NC(=O)[C@H](Cc1c[nH]cn1)NC(=O)[C@H](CCCNC(=N)N)NC(=O)[C@H](CC(C)C)NC(=O)[C@H](Cc1ccccc1)NC(=O)[C@H](CCCNC(=N)N)NC(=O)[C@H](C)NC(=O)[C@H](CC(C)C)NC(=O)[C@H](CCCNC(=N)N)NC(=O)[C@H](CCC(N)=O)NC(=O)[C@@H](NC(=O)[C@H](C)NC(=O)[C@@H]1CSSC[C@H](NC(=O)[C@@H](N)CCCCNC(=O)COCCOCCNC(=O)CC[C@H](NC(=O)CCCCCCCCCCCCCCCCCCC(=O)O)C(=O)O)C(=O)N[C@@H](CC(N)=O)C(=O)N[C@@H]([C@@H](C)O)C(=O)N[C@@H](C)C(=O)N[C@@H]([C@@H](C)O)C(=O)N1)[C@@H](C)O)C(=O)N1CCC[C@H]1C(=O)N[C@@H](CO)C(=O)N[C@@H](CO)C(=O)N[C@H](C(=O)N1CCC[C@H]1C(=O)N[C@H](C(=O)NCC(=O)N[C@@H](CO)C(=O)N[C@@H](CC(N)=O)C(=O)N[C@H](C(=O)N[C@@H](Cc1ccc(O)cc1)C(N)=O)[C@@H](C)O)C(C)C)[C@@H](C)O
notes: also called 64; compound 64
